Data on one molecule can be found in publication PMC5784169, “Repression of Akt3 gene transcription by the tumor suppressor RIZ1”.

The target of series [1] is T1, GST-RIZ1-Zf8 (UniProt Q13029 1455-1478).
T1 chain: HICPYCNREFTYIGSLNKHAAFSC
Nature of the series: EMSA; abolished by 30-fold excess unlabeled probe; LightShift Chemiluminescent EMSA kit, native PAGE; buffer, salt, pH and temperature not stated. The note with it: protein: recombinant; tags: N-terminal GST (pGEX-KG); label: 3' biotin; blunt. (In general: Mobility shift assays separate free from complexed probe on a gel.)

Series [2] concerns the target T2, GST-RIZ1-Zf1-3 (UniProt Q13029 360-506).
T2 sequence: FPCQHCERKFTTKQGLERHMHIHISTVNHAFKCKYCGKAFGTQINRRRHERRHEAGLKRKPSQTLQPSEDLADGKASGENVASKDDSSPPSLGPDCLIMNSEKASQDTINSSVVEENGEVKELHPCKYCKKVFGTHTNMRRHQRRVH
The description is as above. The note with it: protein: recombinant; tags: N-terminal GST (pGEX-KG); label: 3' biotin; blunt.

B1: mouse Akt3 promoter CpG146 probe (dsDNA)
DNA 1: GGGGAGGGGCCGTCTGCGCATGTGGCGGGAGTGCGGGCGA
DNA 2: TCGCCCGCACTCCCGCCACATGCGCAGACGGCCCCTCCCC
With B1, the binding result in series [1] and in series [2] was “binds” in each case.
